B1: CD36 (receptor, mouse, UniProt Q08857 1-472, looked up)
chain: MGCDRNCGLIAGAVIGAVLAVFGGILMPVGDMLIEKTIKREVVLEEGTTAFKNWVKTGTTVYRQFWIFDVQNPDDVAKNSSKIKVKQRGPYTYRVRYLAKENITQDPEDHTVSFVQPNGAIFEPSLSVGTEDDNFTVLNLAVAAAPHIYQNSFVQVVLNSLIKKSKSSMFQTRSLKELLWGYKDPFLSLVPYPISTTVGVFYPYNDTVDGVYKVFNGKDNISKVAIIESYKGKRNLSYWPSYCDMINGTDAASFPPFVEKSRTLRFFSSDICRSIYAVFGSEIDLKGIPVYRFVLPANAFASPLQNPDNHCFCTEKVISNNCTSYGVLDIGKCKEGKPVYISLPHFLHASPDVSEPIEGLHPNEDEHRTYLDVEPITGFTLQFAKRLQVNILVKPARKIEALKNLKRPYIVPILWLNETGTIGDEKAEMFKTQVTGKIKLLGMVEMALLGIGVVMFVAFMISYCACKSKNGK
B2: TLR-2 (receptor, mouse, UniProt Q9QUN7 25-784, looked up)
chain: QESLSCDASGVCDGRSRSFTSIPSGLTAAMKSLDLSFNKITYIGHGDLRACANLQVLILKSSRINTIEGDAFYSLGSLEHLDLSDNHLSSLSSSWFGPLSSLKYLNLMGNPYQTLGVTSLFPNLTNLQTLRIGNVETFSEIRRIDFAGLTSLNELEIKALSLRNYQSQSLKSIRDIHHLTLHLSESAFLLEIFADILSSVRYLELRDTNLARFQFSPLPVDEVSSPMKKLAFRGSVLTDESFNELLKLLRYILELSEVEFDDCTLNGLGDFNPSESDVVSELGKVETVTIRRLHIPQFYLFYDLSTVYSLLEKVKRITVENSKVFLVPCSFSQHLKSLEFLDLSENLMVEEYLKNSACKGAWPSLQTLVLSQNHLRSMQKTGEILLTLKNLTSLDISRNTFHPMPDSCQWPEKMRFLNLSSTGIRVVKTCIPQTLEVLDVSNNNLDSFSLFLPRLQELYISRNKLKTLPDASLFPVLLVMKIRENAVSTFSKDQLGSFPKLETLEAGDNHFVCSCELLSFTMETPALAQILVDWPDSYLCDSPPRLHGHRLQDARPSVLECHQAALVSGVCCALLLLILLVGALCHHFHGLWYLRMMWAWLQAKRKPKKAPCRDVCYDAFVSYSEQDSHWVENLMVQQLENSDPPFKLCLHKRDFVPGKWIIDNIIDSIEKSHKTVFVLSENFVRSEWCKYELDFSHFRLFDENNDAAILVLLEPIERKAIPQRFCKLRKIMNTKTYLEWPLDEGQQEVFWVNLRTAIKS

Target: T1, CD11b (mouse, UniProt P05555 17-1153)
T1 construct: Endogenous protein immunoprecipitated from Raw264.7 macrophage extracts with monoclonal CD11b antibody; Its integrin beta partner is not mentioned
Experiment: co-immunoprecipitation with monoclonal CD11b antibody, Western blot

T1 sequence (P05555 17-1153 limits assumed): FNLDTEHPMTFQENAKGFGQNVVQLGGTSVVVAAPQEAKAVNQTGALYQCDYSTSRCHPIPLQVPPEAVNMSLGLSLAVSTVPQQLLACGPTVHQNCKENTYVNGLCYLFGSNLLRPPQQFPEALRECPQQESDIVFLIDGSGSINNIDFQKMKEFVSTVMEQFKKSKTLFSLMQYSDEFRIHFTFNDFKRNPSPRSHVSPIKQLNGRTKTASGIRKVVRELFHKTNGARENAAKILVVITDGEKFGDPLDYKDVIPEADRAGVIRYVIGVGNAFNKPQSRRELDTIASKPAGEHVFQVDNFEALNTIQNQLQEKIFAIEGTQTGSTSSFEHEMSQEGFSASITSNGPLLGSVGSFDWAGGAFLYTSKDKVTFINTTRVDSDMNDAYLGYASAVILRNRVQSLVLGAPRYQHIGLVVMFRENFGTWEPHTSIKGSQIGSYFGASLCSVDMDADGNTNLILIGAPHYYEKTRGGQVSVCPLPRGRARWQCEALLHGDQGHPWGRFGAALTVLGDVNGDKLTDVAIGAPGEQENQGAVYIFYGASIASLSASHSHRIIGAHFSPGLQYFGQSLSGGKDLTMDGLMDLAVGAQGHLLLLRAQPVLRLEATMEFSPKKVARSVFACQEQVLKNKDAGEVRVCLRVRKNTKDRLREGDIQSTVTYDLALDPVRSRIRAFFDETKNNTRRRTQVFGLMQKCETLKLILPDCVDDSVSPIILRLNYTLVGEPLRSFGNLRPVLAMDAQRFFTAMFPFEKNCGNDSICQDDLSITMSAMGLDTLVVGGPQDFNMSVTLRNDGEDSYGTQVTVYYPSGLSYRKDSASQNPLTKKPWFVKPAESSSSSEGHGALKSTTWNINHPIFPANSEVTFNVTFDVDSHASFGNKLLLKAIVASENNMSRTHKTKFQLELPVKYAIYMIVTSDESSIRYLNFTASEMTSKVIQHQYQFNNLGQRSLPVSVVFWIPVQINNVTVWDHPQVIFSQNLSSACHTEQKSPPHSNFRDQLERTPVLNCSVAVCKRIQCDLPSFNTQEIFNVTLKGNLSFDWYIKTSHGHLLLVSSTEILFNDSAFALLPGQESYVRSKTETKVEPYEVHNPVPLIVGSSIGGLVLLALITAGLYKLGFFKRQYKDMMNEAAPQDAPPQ

Row | Binder | binding result
1 | B1 | no binding
2 | B2 | no binding
